Biological target: T1, human transferrin (human, UniProt P02787 20-698)
T1 construct: The assay paragraphs say only 'transferrin (Biogenesis)'; also called transferrin (Biogenesis); antigen
Test: ELISA, transferrin-coated plate, silk gland extract, anti-mouse Ig-HRP detection
Experimental: Measurement of the activity of a recombinant antibody against an antigen by enzyme-linked immunosorbent assay (ELISA) was carried out by the following procedure. […] This was homogenized using a glass homogenizer and centrifuged at 14,000 rpm for 20 minutes, and then the supernatant was diluted five times (40 mg/ml) and ten times ([…]) in Tris buffer. These samples and the undiluted sample (original concentration: 200 mg/ml) were used as samples for ELISA measurement. Furthermore, similar procedures were used to prepare samples of the Ser1GAL4 strain silkworms for ELISA measurement as a negative control. 100 μl of the samples for ELISA measurement thus prepared were dispensed into a microtiter plate (NUNC) presensitized with 100 μg/well of transferrin (Biogenesis), and the plate was shaken at room temperature for two hours. Next, the ELISA measurement samples were removed from the wells, and the wells were washed three times with 200 μl of PBS-T. Into each well, 100 μl of a solution prepared in advance by diluting a rabbit anti-mouse Ig-HRP-labeled antibody 100-fold with PBS (150 mM NaCl, 10 mM phosphate buffer, pH 7.4) was dispensed, and the plate was shaken at room temperature for six hours. […] After that, the absorbance at 450 nm was measured using a model 550 microplate reader (BioRad).

T1 sequence (P02787 20-698 limits assumed): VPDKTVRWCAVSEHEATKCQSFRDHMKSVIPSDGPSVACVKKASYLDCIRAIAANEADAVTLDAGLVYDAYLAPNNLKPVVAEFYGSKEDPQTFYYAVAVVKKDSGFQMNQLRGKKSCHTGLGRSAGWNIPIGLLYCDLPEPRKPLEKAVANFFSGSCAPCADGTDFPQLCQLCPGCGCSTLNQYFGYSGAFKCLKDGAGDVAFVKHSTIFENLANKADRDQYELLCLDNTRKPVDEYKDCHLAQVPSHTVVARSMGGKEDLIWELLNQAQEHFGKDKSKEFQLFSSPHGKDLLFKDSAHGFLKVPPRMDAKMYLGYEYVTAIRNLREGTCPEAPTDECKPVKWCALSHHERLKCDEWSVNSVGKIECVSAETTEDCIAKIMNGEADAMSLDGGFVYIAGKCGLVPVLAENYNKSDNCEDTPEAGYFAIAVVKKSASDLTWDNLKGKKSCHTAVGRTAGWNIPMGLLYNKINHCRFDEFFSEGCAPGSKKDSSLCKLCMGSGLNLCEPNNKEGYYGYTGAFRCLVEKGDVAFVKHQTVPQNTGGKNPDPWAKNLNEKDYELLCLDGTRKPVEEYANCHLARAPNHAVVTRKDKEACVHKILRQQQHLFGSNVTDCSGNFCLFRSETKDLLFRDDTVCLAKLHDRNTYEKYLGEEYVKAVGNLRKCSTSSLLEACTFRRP

B1: scFv antibody from a mouse anti-human transferrin antibody (anti-transferrin scFv antibody) (scFv)
scFv: LEVQLQESGPDLVKPSQSLSLTCTVTGYSITSGYSWHWIRQFPENKLEWLGYIHSSGATNYSPSLKSRFSITRDTSKNQFFLQLNSVTTEDTATYYCARDGYSPPYAMDYWGQGTTVTVSSGGGGSGGGGSGGGGSDIELTQSPSSLAVSVGEKVTMTCKSSQSLLYSTNQKNYLAWYQQKPGQSPKLLIYWASTRESGVPDRFTGSGSGTDFTLTISSVKAEDLSVYYCQQYYSYPPTFGSGTKLEIK
notes: The signal piece is left out here as a secretion signal; Tested as a crude middle silk gland extract of Ser1GAL4/UASFvaTf silkworms, not purified; also called aTf; FvaTf
Does B1 bind?
Result: binds
